Paper PMC3335857, “Heme Oxygenase Isoforms Differ in Their Subcellular Trafficking during Hypoxia and Are Differentially Modulated by Cytochrome P450 Reductase” (PLoS ONE, 2012)

B1: Strep-tagged full length heme oxygenase-1 (S-HO-1) (enzyme, human, UniProt P09601 1-288, looked up)
chain: MERPQPDSMPQDLSEALKEATKEVHTQAENAEFMRNFQKGQVTRDGFKLVMASLYHIYVALEEEIERNKESPVFAPVYFPEELHRKAALEQDLAFWYGPRWQEVIPYTPAMQRYVKRLHEVGRTEPELLVAHAYTRYLGDLSGGQVLKKIAQKALDLPSSGEGLAFFTFPNIASATKFKQLYRSRMNSLEMTPAVRQRVIEEAKTAFLLNIQLFEELQELLTHDTKDQSPSRAPGLRQRASNKVQDSAPVETPRGKPPLNTRSQAPLLRWVLTLSFLVATVAVGLYAM
notes: human heme oxygenase 1 (HO-1), cloned from human placenta cDNA, full length; also called full length HO-1; source: Sf9, recombinant baculovirus; not shown: Strep-tag II, N-terminal, kept
B2: Strep-tagged full length heme oxygenase-2 (S-HO-2) (enzyme, human, UniProt P30519 1-316, looked up)
chain: MSAEVETSEGVDESEKKNSGALEKENQMRMADLSELLKEGTKEAHDRAENTQFVKDFLKGNIKKELFKLATTALYFTYSALEEEMERNKDHPAFAPLYFPMELHRKEALTKDMEYFFGENWEEQVQCPKAAQKYVERIHYIGQNEPELLVAHAYTRYMGDLSGGQVLKKVAQRALKLPSTGEGTQFYLFENVDNAQQFKQLYRARMNALDLNMKTKERIVEEANKAFEYNMQIFNELDQAGSTLARETLEDGFPVHDGKGDMRKCPFYAAEQDKGALEGSSCPFRTAMAVLRKPSLQFILAAGVALAAGLLAWYYM
notes: human heme oxygenase 2 (HO-2), cloned from human placenta cDNA, full length; also called full length HO-2; source: Sf9, recombinant baculovirus; not shown: Strep-tag II, N-terminal, kept

Target: the molecule itself
Test: SEC; 150 µg purified S-HO variant (expressed alone, or full length S-HO co-expressed and co-purified with CPR) on Superdex 200 10/300 GL; 50 mM TEA-HCl, 250 mM NaCl, pH 8.0; peaks blotted with HO antibodies

| Protein | binding result |
| --- | --- |
| B1 | binds |
| B2 | binds |
